Experimental data published in publication PMC11996680, “KIF1C activates and extends dynein movement through the FHF cargo adapter” (Nature Structural & Molecular Biology, 2025).

B1: HOOK3-SNAPf labeled with Alexa-647 (natural protein, human, UniProt Q86VS8 1-718, looked up)
chain: MFSVESLERAELCESLLTWIQTFNVDAPCQTVEDLTNGVVMAQVLQKIDPAYFDENWLNRIKTEVGDNWRLKISNLKKILKGILDYNHEILGQQINDFTLPDVNLIGEHSDAAELGRMLQLILGCAVNCEQKQEYIQAIMMMEESVQHVVMTAIQELMSKESPVSAGNDAYVDLDRQLKKTTEELNEALSAKEEIAQRCHELDMQVAALQEEKSSLLAENQVLMERLNQSDSIEDPNSPAGRRHLQLQTQLEQLQEETFRLEAAKDDYRIRCEELEKEISELRQQNDELTTLADEAQSLKDEIDVLRHSSDKVSKLEGQVESYKKKLEDLGDLRRQVKLLEEKNTMYMQNTVSLEEELRKANAARSQLETYKRQVVELQNRLSEESKKADKLDFEYKRLKEKVDSLQKEKDRLRTERDSLKETIEELRCVQAQEGQLTTQGLMPLGSQESSDSLAAEIVTPEIREKLIRLQHENKMLKLNQEGSDNEKIALLQSLLDDANLRKNELETENRLVNQRLLEVQSQVEELQKSLQDQGSKAEDSVLLKKKLEEHLEKLHEANNELQKKRAIIEDLEPRFNNSSLKIEELQEALRKKEEEMKQMEERYKKYLEKAKSVIRTLDPKQNQGAAPEIQALKNQLQERDRLFHSLEKEYEKTKSQREMEEKYIVSAWYNMGMTLHKKAAEDRLASTGSGQSFLARQRQATSSRRSYPGHVQPATAR
modifications: Alexa-647 on the SNAP tag
notes: HOOK3, human, amplified from a human cDNA library from the start codon to the last codon; also called HOOK3-Alexa 647; source: Sf9, purified (Ni-NTA, IgG Sepharose, cut off the beads with TEV protease); not shown: 8xHis, N-terminal, cleaved; ZZ, N-terminal, cleaved; SNAPf, C-terminal, kept
B2: GST–KIF1C stalk (residues 642–922) (domain or fragment, human, UniProt O43896 642-922, looked up)
chain: EMEKRLQDLENQYRKEKEEADLLLEQQRLYADSDSGDDSDKRSCEESWRLISSLREQLPPTTVQTIVKRCGLPSSGKRRAPRRVYQIPQRRRLQGKDPRWATMADLKMQAVKEICYEVALADFRHGRAEIEALAALKMRELCRTYGKPDGPGDAWRAVARDVWDTVGEEEGGGAGSGGGSEEGARGAEVEDLRAHIDKLTGILQEVKLQNSSKDRELQALRDRMLRMERVIPLAQDHEDENEEGGEVPWAPPEGSEAAEEAAPSDRMPSARPPSPPLSSWE
notes: KIF1C, human, amino acids 642-922 (CC2, stalk globular domain, CC3); A tandem TEV site lies between GST and KIF1C; also called KS; GST-tagged KIF1C stalk; source: E. coli SoluBL21, purified (Ni-NTA, SEC); not shown: GST, N-terminal, kept
B3: GST-KIF1C stalk 674-922 (domain or fragment, human, UniProt O43896 674-922, looked up)
chain: SDSGDDSDKRSCEESWRLISSLREQLPPTTVQTIVKRCGLPSSGKRRAPRRVYQIPQRRRLQGKDPRWATMADLKMQAVKEICYEVALADFRHGRAEIEALAALKMRELCRTYGKPDGPGDAWRAVARDVWDTVGEEEGGGAGSGGGSEEGARGAEVEDLRAHIDKLTGILQEVKLQNSSKDRELQALRDRMLRMERVIPLAQDHEDENEEGGEVPWAPPEGSEAAEEAAPSDRMPSARPPSPPLSSWE
notes: KIF1C, human, residues 674-922; Based on the original GST–KIF1C stalk plasmid; also called KIF1CS^2; KIF1CS^674–922; source: E. coli SoluBL21, purified (Ni-NTA, SEC); not shown: GST, N-terminal, kept
B4: C-terminal HOOK3 fragment (residues 571–718) (domain or fragment, human, UniProt Q86VS8 571-718, looked up)
chain: DLEPRFNNSSLKIEELQEALRKKEEEMKQMEERYKKYLEKAKSVIRTLDPKQNQGAAPEIQALKNQLQERDRLFHSLEKEYEKTKSQREMEEKYIVSAWYNMGMTLHKKAAEDRLASTGSGQSFLARQRQATSSRRSYPGHVQPATAR
notes: gene codon optimized for Sf9; Captured on Strep-Tactin by the tag, then released with PreScission protease before gel filtration; Two copies form the coiled coil in the structure; source: Sf9, co-expressed with FTS and FHIP1B or FHIP2A, purified (Strep-Tactin, PreScission, SEC); not shown: Strep II, N-terminal, cleaved

Key:
[1] = target: T1, KIF1C–GFP (full-length KIF1C fused to a C-terminal eGFP) (human, UniProt O43896 1-1103); assay: single-molecule TIRF microscopy, co-movement on microtubules; 200 nM TMR–dynein, 200 nM dynactin, 1,600 nM labeled adapter and 180 nM KIF1C-GFP mixed at ~75 mM KCl, on ice 45–60 min, diluted 1:20 or 1:40; biotin-microtubules held on the coverslip; 25 °C; settings: both partners purified
T1 construct: kinesin-3 KIF1C, human, full length (residues up to 1103 are named); also called KFL; KFL–GFP; not shown: eGFP, C-terminal, kept
T1 sequence (looked up): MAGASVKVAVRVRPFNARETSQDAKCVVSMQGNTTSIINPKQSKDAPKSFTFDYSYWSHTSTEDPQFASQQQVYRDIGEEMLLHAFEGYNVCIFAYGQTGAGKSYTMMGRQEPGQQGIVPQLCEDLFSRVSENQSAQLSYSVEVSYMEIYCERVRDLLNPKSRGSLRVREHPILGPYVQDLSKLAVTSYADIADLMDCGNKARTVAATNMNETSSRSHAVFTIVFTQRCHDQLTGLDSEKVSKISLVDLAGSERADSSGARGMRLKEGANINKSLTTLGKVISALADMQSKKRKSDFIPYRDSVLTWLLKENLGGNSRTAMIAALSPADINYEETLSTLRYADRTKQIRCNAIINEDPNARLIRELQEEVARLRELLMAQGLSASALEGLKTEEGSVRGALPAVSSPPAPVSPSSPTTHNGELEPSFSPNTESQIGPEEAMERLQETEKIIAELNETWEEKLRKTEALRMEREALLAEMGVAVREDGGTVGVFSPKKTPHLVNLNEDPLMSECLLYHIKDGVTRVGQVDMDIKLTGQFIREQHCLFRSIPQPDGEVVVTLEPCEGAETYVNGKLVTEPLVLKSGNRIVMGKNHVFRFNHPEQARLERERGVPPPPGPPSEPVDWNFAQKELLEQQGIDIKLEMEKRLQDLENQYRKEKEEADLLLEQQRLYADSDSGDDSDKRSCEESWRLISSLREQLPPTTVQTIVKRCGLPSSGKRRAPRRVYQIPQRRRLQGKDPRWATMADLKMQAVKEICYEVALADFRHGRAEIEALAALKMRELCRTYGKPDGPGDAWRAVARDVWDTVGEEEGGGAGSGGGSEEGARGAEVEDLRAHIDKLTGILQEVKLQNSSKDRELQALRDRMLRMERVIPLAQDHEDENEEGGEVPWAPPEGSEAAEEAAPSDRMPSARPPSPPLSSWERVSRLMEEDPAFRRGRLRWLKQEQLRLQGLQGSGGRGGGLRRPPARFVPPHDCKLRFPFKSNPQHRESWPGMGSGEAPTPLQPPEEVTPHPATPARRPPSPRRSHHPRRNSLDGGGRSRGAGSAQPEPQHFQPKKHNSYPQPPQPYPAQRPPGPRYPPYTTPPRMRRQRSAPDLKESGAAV

[2] = target: T2, full-length FTS–HOOK3–FHIP1B complex (human, UniProt Q86VS8 1-718; Q9H8T0 1-292; Q8N612 1-972); assay: mass photometry; full-length FHF with KIF1C stalk, 100 nM in GF150, Refeyn TwoMP; settings: both partners purified
T2 construct: HOOK3, human, full length; FTS, human, full length; FHIP1B, human, full length; SEC-MALS gave ~304 kDa for the full-length complex; also called FHF; full-length FHF; source: Sf9, co-expressed, purified (Strep-Tactin, PreScission, SEC); not shown: Strep II, N-terminal, cleaved; copies: 2 + +
T2 sequence (Q9H8T0 whole entry, chain 2 of 2): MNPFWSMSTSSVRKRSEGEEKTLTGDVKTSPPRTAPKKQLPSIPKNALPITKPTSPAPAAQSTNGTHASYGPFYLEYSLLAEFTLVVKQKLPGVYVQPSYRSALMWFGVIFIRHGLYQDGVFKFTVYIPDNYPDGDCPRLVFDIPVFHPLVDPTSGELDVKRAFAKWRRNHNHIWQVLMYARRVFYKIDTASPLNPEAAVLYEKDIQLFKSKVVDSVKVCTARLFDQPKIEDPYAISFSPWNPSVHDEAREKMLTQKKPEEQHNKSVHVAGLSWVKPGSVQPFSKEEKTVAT
T2 sequence (Q8N612 whole entry, chain 3 of 2): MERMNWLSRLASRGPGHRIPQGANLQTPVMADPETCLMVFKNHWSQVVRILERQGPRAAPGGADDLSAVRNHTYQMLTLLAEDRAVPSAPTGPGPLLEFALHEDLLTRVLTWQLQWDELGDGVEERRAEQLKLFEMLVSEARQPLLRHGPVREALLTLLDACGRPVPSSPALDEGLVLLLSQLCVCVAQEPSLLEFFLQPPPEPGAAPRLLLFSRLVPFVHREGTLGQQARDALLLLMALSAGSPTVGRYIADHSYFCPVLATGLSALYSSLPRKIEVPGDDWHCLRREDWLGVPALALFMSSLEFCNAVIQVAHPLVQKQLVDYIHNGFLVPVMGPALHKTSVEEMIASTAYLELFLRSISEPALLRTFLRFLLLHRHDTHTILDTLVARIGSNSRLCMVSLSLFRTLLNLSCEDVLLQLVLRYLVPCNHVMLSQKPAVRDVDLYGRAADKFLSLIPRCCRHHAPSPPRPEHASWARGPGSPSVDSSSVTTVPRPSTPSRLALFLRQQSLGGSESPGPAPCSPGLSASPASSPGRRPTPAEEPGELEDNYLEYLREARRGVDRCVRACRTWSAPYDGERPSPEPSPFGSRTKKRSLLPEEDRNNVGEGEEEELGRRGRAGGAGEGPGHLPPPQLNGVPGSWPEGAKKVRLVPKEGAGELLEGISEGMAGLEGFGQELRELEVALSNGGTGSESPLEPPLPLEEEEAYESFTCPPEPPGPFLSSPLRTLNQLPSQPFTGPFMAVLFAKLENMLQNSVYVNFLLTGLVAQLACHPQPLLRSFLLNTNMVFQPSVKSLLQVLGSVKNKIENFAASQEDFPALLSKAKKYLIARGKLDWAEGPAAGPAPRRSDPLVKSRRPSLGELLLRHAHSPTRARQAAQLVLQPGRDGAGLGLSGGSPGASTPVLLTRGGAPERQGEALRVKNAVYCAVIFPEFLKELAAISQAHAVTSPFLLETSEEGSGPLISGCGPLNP

[3] = target: T3, full-length HOOK3 (of FHF co-expression) (human, UniProt Q86VS8 1-718); assay: cross-linking; cross-linking mass spectrometry; 10 mM EDC or 5 mM DSSO, room temperature, 60 min; full-length FHF or FH^571-718F with KIF1C stalk 674-922; settings: both partners purified
T3 construct: HOOK3, human, full length; gene codon optimized for Sf9; Captured on Strep-Tactin by the tag, then released with PreScission protease before gel filtration; source: Sf9, co-expressed with FTS and FHIP1B or FHIP2A, purified (Strep-Tactin, PreScission, SEC); not shown: Strep II, N-terminal, cleaved
T3 sequence (looked up): B1 chain

[4] = target: T4, C-terminal HOOK3 (residues 451–718) (human, UniProt Q86VS8 451-718); assay: cryo-EM structure; FH^451–718F with GST-KIF1C stalk 674–922; 4.8 Å, low resolution at the KIF1C stalk density; no atomic model; settings: both partners purified
T4 construct: also called H^C; source: Sf9, co-expressed with FTS and FHIP1B, purified (Strep-Tactin, PreScission, SEC); not shown: Strep II, N-terminal, cleaved
T4 sequence (looked up): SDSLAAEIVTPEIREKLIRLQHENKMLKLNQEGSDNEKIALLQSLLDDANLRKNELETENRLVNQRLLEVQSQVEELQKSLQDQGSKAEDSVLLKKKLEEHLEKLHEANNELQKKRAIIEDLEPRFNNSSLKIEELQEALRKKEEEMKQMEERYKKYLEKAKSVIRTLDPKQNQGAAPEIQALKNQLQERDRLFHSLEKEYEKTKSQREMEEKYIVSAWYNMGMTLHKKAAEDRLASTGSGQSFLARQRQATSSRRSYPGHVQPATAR

GST-KIF1C stalk 674-922 = target: B3; assay: cross-linking; cross-linking mass spectrometry; 10 mM EDC or 5 mM DSSO, room temperature, 60 min; full-length FHF or FH^571-718F with KIF1C stalk 674-922; settings: both partners purified
[5] = target: the molecule itself; assay: cryo-EM structure; FTS, FHIP1B and HOOK3 571–718, co-expressed in Sf9 and purified as one complex; 3.2 Å; 0.9 mg/ml with 0.1% CHAPSO or 0.005% Igepal

B1
binding result [1]: binds

B2
stoichiometry N [2]: 1 dimeric KIF1C stalk per FHF

B3
binding result [3]: binds
binding result [4]: binds

B4
binding result (GST-KIF1C stalk 674-922): binds
binding result [5]: binds
